In the assay the target is murine VISTA (V-domain Ig suppressor of T cell activation) on spleen cells / Ly6C+CD11b+ MDSCs of B6 mice (mouse) (UniProt Q9D659). Description: cell-based or functional assay.
Chain of UniProt Q9D659 (Q9D659 33-308): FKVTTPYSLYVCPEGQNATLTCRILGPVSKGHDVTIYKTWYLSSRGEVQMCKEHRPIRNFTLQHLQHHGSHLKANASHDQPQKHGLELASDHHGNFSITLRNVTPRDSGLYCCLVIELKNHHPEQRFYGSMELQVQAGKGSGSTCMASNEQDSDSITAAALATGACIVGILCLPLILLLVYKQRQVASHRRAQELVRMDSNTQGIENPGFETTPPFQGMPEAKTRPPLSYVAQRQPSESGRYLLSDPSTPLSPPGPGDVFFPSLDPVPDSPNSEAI

anti-VISTA mAb (13F3) (antibody): the blocking of MDSC suppression of B-cell responsiveness (3H-thymidine incorporation, α-CD40 + IL-4 stimulation) amounted to 50%; the blocking of MDSC suppression of B-cell responsiveness, corrected for control HIg came out at 55%; the blocking of MDSC suppression of B-cell responsiveness, over several independent experiments turned out to be 65%.
